From patent US20240052034A1 (PANDION OPERATIONS, published 2024)
Where a chain is given by its changes, count along the chain named. Values joined by “and” are separate entries in the source; they are usually repeats but may differ in a detail not shown here. Equal values may be shown once.

B1: scFv moiety of the PD1AB53 (scFv)
scFv: DIQMTQSPSSLSASVGDRVTITCQASRDIKNYLAWYQQKPGKAPKLLIYAASSLQSGVPSRFSGSGSGTDFTLTISSLQPEDFATYYCQQSYSTPPTFGCGTKVDIKGGGGSGGGGSGGGGSGGGGSEVQLVQSGAEVKKPGASVKVSCKASGYSFTTYYMHWVRQAPGQCLEWMGIINPSGGSTSYAQKFQGRVTMTRDTSTSTVYMELSSLRSEDTAVYYCASGWVYWGQGTLVTVSS
notes: also called PD1AB53 scFv
B2: scFv moiety of the PD1AB37 (scFv)
scFv: EVQLLESGGGLVQPGGSLRLSCAASGFTFSSYDMSWVRQAPGKGLEWVSGITISGGSTYYADSVKGRFTISRDNSKNTLYLQMNSLRAEDTAVYYCARGRGGSGWLDYWGQGTTVTVSSGGGGSGGGGSGGGGSGGGGSDIVMTQSPDSLAVSLGERATINCKSSQSVLYSPNNKNYLAWYQQKPGQPPKLLIYWASTRESGVPDRFSGSGSGTDFTLTISSLQAEDVAVYYCQQYYTTPPTFGQGTRLEIK
notes: also called PD1AB37 scFv
B3: scFv moiety of the PD1AB38 (scFv)
scFv: B2 scFv
notes: also called PD1AB38 scFv
B4: PD1AB38 (bispecific antibody, human IgG1, kappa)
heavy: EVQLVQSGAEVKKPGASVKVSCKASGYSFTTYYMHWVRQAPGQGLEWMGIINPSGGSTSYAQKFQGRVTMTRDTSTSTVYMELSSLRSEDTAVYYCASGWVYWGQGTLVTVSSASTKGPSVFPLAPSSKSTSGGTAALGCLVKDYFPEPVTVSWNSGALTSGVHTFPAVLQSSGLYSLSSVVTVPSSSLGTQTYICNVNHKPSNTKVDKKVEPKSCDKTHTCPPCPAPEAAGAPSVFLFPPKPKDTLMISRTPEVTCVVVDVSHEDPEVKFNWYVDGVEVHNAKTKPREEQYNSTYRVVSVLTVLHQDWLNGKEYKCKVSNKALPAPIEKTISKAKGQPREPQVYTLPPSREEMTKNQVSLTCLVKGFYPSDIAVEWESNGQPENNYKTTPPVLDSDGSFFLYSKLTVDKSRWQQGNVFSCSVMHEALHNHYTQKSLSLSPGGGGGSGGGGSGGGGSEVQLLESGGGLVQPGGSLRLSCAASGFTFSSYDMSWVRQAPGKGLEWVSGITISGGSTYYADSVKGRFTISRDNSKNTLYLQMNSLRAEDTAVYYCARGRGGSGWLDYWGQGTTVTVSSGGGGSGGGGSGGGGSGGGGSDIVMTQSPDSLAVSLGERATINCKSSQSVLYSPNNKNYLAWYQQKPGQPPKLLIYWASTRESGVPDRFSGSGSGTDFTLTISSLQAEDVAVYYCQQYYTTPPTFGQGTRLEIK
light: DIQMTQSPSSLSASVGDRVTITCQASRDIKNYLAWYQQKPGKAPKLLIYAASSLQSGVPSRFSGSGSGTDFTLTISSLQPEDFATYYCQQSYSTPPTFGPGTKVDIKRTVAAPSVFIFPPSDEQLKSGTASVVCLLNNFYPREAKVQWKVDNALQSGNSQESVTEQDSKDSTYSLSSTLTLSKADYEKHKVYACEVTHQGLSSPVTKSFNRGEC
B5: PD1AB37 (bispecific antibody, human IgG1, kappa)
heavy: B4 heavy with T31S
light: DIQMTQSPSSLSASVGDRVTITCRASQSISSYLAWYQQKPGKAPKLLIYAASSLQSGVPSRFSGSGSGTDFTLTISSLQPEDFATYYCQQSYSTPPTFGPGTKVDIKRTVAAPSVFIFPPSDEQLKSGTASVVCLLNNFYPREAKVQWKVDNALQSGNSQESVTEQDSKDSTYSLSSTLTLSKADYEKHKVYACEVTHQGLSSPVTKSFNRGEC
B6: PD1AB43 (bispecific antibody, human IgG1, kappa)
heavy: B4 heavy with E1Q, N52A
light: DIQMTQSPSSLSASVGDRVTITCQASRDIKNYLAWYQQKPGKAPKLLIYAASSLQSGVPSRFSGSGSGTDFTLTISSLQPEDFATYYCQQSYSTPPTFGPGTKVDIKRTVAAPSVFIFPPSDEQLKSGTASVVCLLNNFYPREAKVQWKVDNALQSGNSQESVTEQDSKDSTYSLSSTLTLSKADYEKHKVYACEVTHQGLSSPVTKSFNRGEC
B7: Fab moiety of the PD1AB53 (Fab, V domains shown)
VH: EVQLLESGGGLVQPGGSLRLSCAASGFTFSSYDMSWVRQAPGKGLEWVSGITISGGSTYYADSVKGRFTISRDNSKNTLYLQMNSLRAEDTAVYYCARGRGGSGWLDYWGQGTTVTVSS
VL: not shown
notes: also called PD1AB53 Fab
B8: Fab moiety of the PD1AB37 (Fab, V domains shown)
VH: EVQLVQSGAEVKKPGASVKVSCKASGYSFTSYYMHWVRQAPGQGLEWMGIINPSGGSTSYAQKFQGRVTMTRDTSTSTVYMELSSLRSEDTAVYYCASGWVYWGQGTLVTVSS
VL: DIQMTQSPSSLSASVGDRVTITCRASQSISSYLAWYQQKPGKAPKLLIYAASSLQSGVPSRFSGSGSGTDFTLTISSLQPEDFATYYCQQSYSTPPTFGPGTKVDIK
notes: also called PD1AB37 Fab
B9: Fab moiety of the PD1AB38 (Fab, V domains shown)
VH: B8 VH with S31T
VL: DIQMTQSPSSLSASVGDRVTITCQASRDIKNYLAWYQQKPGKAPKLLIYAASSLQSGVPSRFSGSGSGTDFTLTISSLQPEDFATYYCQQSYSTPPTFGPGTKVDIK
notes: also called PD1AB38 Fab
B10: PD1AB53 (bispecific antibody, human IgG1, kappa)
heavy: EVQLLESGGGLVQPGGSLRLSCAASGFTFSSYDMSWVRQAPGKGLEWVSGITISGGSTYYADSVKGRFTISRDNSKNTLYLQMNSLRAEDTAVYYCARGRGGSGWLDYWGQGTTVTVSSASTKGPSVFPLAPSSKSTSGGTAALGCLVKDYFPEPVTVSWNSGALTSGVHTFPAVLQSSGLYSLSSVVTVPSSSLGTQTYICNVNHKPSNTKVDKKVEPKSCDKTHTCPPCPAPEAAGAPSVFLFPPKPKDTLMISRTPEVTCVVVDVSHEDPEVKFNWYVDGVEVHNAKTKPREEQYNSTYRVVSVLTVLHQDWLNGKEYKCKVSNKALPAPIEKTISKAKGQPREPQVYTLPPSREEMTKNQVSLTCLVKGFYPSDIAVEWESNGQPENNYKTTPPVLDSDGSFFLYSKLTVDKSRWQQGNVFSCSVMHEALHNHYTQKSLSLSPGGGGSEGGGSEGGGSEDIQMTQSPSSLSASVGDRVTITCQASRDIKNYLAWYQQKPGKAPKLLIYAASSLQSGVPSRFSGSGSGTDFTLTISSLQPEDFATYYCQQSYSTPPTFGCGTKVDIKGGGGSGGGGSGGGGSGGGGSEVQLVQSGAEVKKPGASVKVSCKASGYSFTTYYMHWVRQAPGQCLEWMGIINPSGGSTSYAQKFQGRVTMTRDTSTSTVYMELSSLRSEDTAVYYCASGWVYWGQGTLVTVSS
light: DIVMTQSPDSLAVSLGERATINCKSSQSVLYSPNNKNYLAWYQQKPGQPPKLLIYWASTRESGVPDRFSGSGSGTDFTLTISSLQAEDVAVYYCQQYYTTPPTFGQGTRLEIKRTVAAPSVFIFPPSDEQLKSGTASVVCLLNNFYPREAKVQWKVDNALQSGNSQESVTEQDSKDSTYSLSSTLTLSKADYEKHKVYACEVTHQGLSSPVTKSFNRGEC

How the values were obtained:
biotinylated huPD-1 = biological target: T1, biotinylated huPD-1 (human, UniProt Q15116 25-167, limits assumed, biotinylated (site not stated)); assay: BLI (biosensor): biotinylated huPD-1 on streptavidin tips, fragment in solution
T1 construct: also called human PD-1
Experimental: (§1) Anti-human IgG Fc (AHC) or Streptavidin (SA) biosensor were equilibrated in assay buffer for 20 minutes. Fe-tagged mouse and cynomolgus PD-1 was diluted to 5 μg/mL and biotinylated huPD-1 article was diluted to 0.5 μg/mL in assay buffer (1×PBS, 1% BSA, 0.05% Tween20). […] PD-1 was loaded on tips for 180 s followed by a 180 s association phase with PD-1 and 180 s dissociation phase in assay buffer.

[1] = biological target: T2, Fc-tagged cynomolgus PD-1 (cynomolgus, UniProt B0LAJ3 25-170); assay: BLI (biosensor): Fc-tagged PD-1 on anti-human IgG Fc tips, fragment in solution
T2 construct: Printed 'Fe-tagged', read as Fc-tagged; also called cyno PD-1; Fe-tagged cynomolgus PD-1 (so in the source)
Experimental: as §1

Fc-tagged mouse PD-1 = biological target: T3, Fc-tagged mouse PD-1 (mouse, UniProt Q02242 25-167, limits assumed); assay: as above
T3 construct: Printed 'Fe-tagged', read as Fc-tagged; also called Fe-tagged mouse PD-1 (so in the source); not shown: Fc tag
T3 sequence (looked up): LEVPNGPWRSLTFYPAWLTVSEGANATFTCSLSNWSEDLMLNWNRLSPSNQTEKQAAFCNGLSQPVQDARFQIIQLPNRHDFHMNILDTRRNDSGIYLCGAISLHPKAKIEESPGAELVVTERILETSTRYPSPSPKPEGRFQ
Experimental: as §1

mouse PD-1 = biological target: T4, mouse PD-1 (mouse, UniProt Q02242 25-167, limits assumed); assay: BLI (biosensor): test article on anti-human IgG Fc tips, PD-1 in solution
T4 sequence (looked up): T3 sequence (looked up)
Experimental: (§2) Anti-human IgG Fc (AHC) biosensors were equilibrated in assay buffer for 20 minutes. Test articles were diluted to 10 μg/mL in assay buffer (lx PBS, 1% BSA, 0.05% Tween20). A seven-point serial dilution of human PD-1 was prepared in assay buffer, starting at 1000 nM down to 15.625 nM (human PD-1) or 2000 nM down to 31.25 nM (mouse PD-1). Test articles were loaded on tips for 180 s followed by a 180 s association phase with PD-1 and 180 s dissociation phase in assay buffer.
as §2, with “article was” for “articles were”, “(human and cyno” for “(human”

[2] = biological target: PD-1 on PD-1 reporter Jurkat cells (UniProt Q15116 25-288, limits assumed); assay: cell-based or functional assay
cynomolgus PD-1 = biological target: T5, cynomolgus PD-1 (cynomolgus, UniProt B0LAJ3 25-170); assay: BLI (biosensor): test article on anti-human IgG Fc tips, PD-1 in solution
T5 construct: also called cyno PD-1
Experimental: as §2
as §2, with “article was” for “articles were”, “(human and cyno” for “(human”

human PD-1 = biological target: T6, human PD-1 (human, UniProt Q15116 25-167, limits assumed); assay: as above
T6 construct: also called huPD-1
Experimental: as §2
as §2, with “article was” for “articles were”, “(human and cyno” for “(human”

T1 sequence (Q15116 25-167 limits assumed): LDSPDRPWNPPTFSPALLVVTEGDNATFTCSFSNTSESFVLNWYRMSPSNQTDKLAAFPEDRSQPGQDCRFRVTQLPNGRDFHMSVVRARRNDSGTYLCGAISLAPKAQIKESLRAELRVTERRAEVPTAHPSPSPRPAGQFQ
T6 sequence (Q15116 25-167 limits assumed): as above
T2 sequence (B0LAJ3 entry or part of it limits assumed): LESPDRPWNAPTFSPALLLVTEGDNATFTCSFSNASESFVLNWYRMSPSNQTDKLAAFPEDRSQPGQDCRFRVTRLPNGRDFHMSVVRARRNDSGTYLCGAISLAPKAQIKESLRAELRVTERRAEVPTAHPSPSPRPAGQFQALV
T5 sequence (B0LAJ3 entry or part of it limits assumed): as above
Sequence of PD-1 on PD-1 reporter Jurkat cells (Q15116 25-288 limits assumed): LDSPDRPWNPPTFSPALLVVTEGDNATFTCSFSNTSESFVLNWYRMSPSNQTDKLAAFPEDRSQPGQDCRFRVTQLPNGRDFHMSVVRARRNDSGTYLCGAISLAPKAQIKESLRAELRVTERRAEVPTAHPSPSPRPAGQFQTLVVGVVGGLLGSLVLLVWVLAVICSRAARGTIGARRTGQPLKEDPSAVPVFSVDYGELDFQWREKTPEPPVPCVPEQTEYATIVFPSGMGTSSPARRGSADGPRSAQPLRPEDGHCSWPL

| Binder | Kd (biotinylated huPD-1) | Kd [1] | Kd (Fc-tagged mouse PD-1) | binding result (Fc-tagged mouse PD-1) | Kd (mouse PD-1) | koff (mouse PD-1) | kon (mouse PD-1) | EC50 of SHP-2 recruitment, PD-1 reporter Jurkat cells, Ig-tethered test article on anti-human IgG coated plates [2] | EC50 of SHP-2 recruitment, PD-1 reporter Jurkat cells, soluble test article [2] | other results |
| --- | --- | --- | --- | --- | --- | --- | --- | --- | --- | --- |
| B1 | 1350 nM | 1170 nM | 1060 nM |  |  |  |  |  |  |  |
| B2 | 89.9 nM | 58.6 nM |  | no binding |  |  |  |  |  |  |
| B3 |  | 58.6 nM |  | no binding |  |  |  |  |  |  |
| B4 |  |  |  |  | 979 nM | 0.0229 s⁻¹ | 23400 M⁻¹ s⁻¹ | 20.9 nM | 0.302 nM |  |
| B5 |  |  |  |  | 4860 nM | 0.0245 s⁻¹ | 5050 M⁻¹ s⁻¹ | 24.5 nM | 0.37 nM | Kd (cynomolgus PD-1): 15.4 nM; koff (cynomolgus PD-1): 0.000566 s⁻¹; kon (cynomolgus PD-1): 36800 M⁻¹ s⁻¹; Kd (human PD-1): 18.3 nM; koff (human PD-1): 0.000824 s⁻¹; kon (human PD-1): 45000 M⁻¹ s⁻¹ |
| B6 |  |  |  |  | 1430 nM | 0.0404 s⁻¹ | 28200 M⁻¹ s⁻¹ | 8.51 nM | 0.574 nM | response (mouse PD-1): 0.0546 |
| B7 | 32.6 nM | 30.3 nM |  | no binding (tested: PD1AB53 Fab: dilution series from 500 nM) |  |  |  |  |  |  |
| B8 | 330 nM | 497 nM | 1350 nM |  |  |  |  |  |  |  |
| B9 | 140 nM | 172 nM | 176 nM |  |  |  |  |  |  |  |
| B10 |  |  |  |  |  | 0.0228 s⁻¹ and 0.0657 s⁻¹ | 5940 M⁻¹ s⁻¹ and 2670 M⁻¹ s⁻¹ | 4.83 nM | 1.21 nM | response (mouse PD-1): 0.0367; Kd (cynomolgus PD-1): 13.5 nM; koff (cynomolgus PD-1): 0.000531 s⁻¹; kon (cynomolgus PD-1): 39400 M⁻¹ s⁻¹; kon (human PD-1): 67600 M⁻¹ s⁻¹ and 41300 M⁻¹ s⁻¹; response (human PD-1): 0.227 |
